# In US20260139240A1 (GRIFFITH UNIVERSITY, published 2026):
# B1: Bovine α1-acid glycoprotein (AGP) (other)
# chain: QSPECANLMTVAPITNATMDLLSGKWFYIGSAFRNPEYNKSARAIQAAFFYLEPRHAEDKLITREYQTIEDKCVYNCSFIKIYRQNGTLSKVESDREHFVDLLLSKHFRTFMLAASWNGTKNVGVSFYADKPEVTQEQKKEFLDVIKCIGIQESEIIYTDEKKDACGPLEKQHEEERKKETEAS
# notes: mature; also called Bovine α1-AGP; bovine AGP
# Molecular target: T1, Wild type SubB (subtilase cytotoxin B subunit) (Escherichia coli, UniProt Q6EZC3 24-141)
# T1 construct: also called SubB WT
# Test: SPR (Biacore […]), […], single cycle kinetics
binder,measurement,value
B1,Kd,156 nM
